Article PMC2633621 (Nature chemical biology, 2008)

T1: I211R mutant Kvβ2 expressed in complex with the T1 domain (rat, UniProt P62483 36-367, I211R)
T1 sequence (looked up): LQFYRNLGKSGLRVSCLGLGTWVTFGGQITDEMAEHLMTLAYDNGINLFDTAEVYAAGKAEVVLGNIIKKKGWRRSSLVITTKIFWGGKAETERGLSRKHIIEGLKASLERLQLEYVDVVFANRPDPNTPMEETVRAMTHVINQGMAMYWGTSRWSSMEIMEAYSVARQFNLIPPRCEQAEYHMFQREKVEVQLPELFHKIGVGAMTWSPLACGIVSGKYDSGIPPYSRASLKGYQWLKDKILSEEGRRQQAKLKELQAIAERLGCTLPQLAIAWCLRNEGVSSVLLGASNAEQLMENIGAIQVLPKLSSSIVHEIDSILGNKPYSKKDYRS


Legend:
[1] = molecular target: T1, I211R mutant Kvβ2 expressed in complex …; assay: pull-down
crystal structure = molecular target: the molecule itself; assay: crystal structure

| Binder | binding result (crystal structure) | further results |
| --- | --- | --- |
| T1 domain of Kv1.1 (residues 2 to 135), fusion with N-terminal 6-histidine tag and SUMO protein (domain or fragment, rat, UniProt P10499 2-135, looked up) TVMSGENADEASAAPGHPQDGSYPRQADHDDHECCERVVINISGLRFETQLKTLAQFPNTLLGNPKKRMRYFDPLRNEYFFDRNRPSFDAILYYYQSGGRLRRPVNVPLDMFSEEIKFYELGEEAMEKFREDEG | – | binding result [1]: binds |
| Kvβ2 conserved core (residues 36 to 367), purified and co-crystallized with cortisone (domain or fragment, rat, UniProt P62483 36-367, looked up) LQFYRNLGKSGLRVSCLGLGTWVTFGGQITDEMAEHLMTLAYDNGINLFDTAEVYAAGKAEVVLGNIIKKKGWRRSSLVITTKIFWGGKAETERGLSRKHIIEGLKASLERLQLEYVDVVFANRPDPNTPMEETVRAMTHVINQGMAMYWGTSRWSSMEIMEAYSVARQFNLIPPICEQAEYHMFQREKVEVQLPELFHKIGVGAMTWSPLACGIVSGKYDSGIPPYSRASLKGYQWLKDKILSEEGRRQQAKLKELQAIAERLGCTLPQLAIAWCLRNEGVSSVLLGASNAEQLMENIGAIQVLPKLSSSIVHEIDSILGNKPYSKKDYRS | – | stoichiometry N (crystal structure): 4 |
| I211R mutant Kvβ2, co-crystallized with 2 mM cortisone (domain or fragment, rat, UniProt P62483 36-367, looked up) LQFYRNLGKSGLRVSCLGLGTWVTFGGQITDEMAEHLMTLAYDNGINLFDTAEVYAAGKAEVVLGNIIKKKGWRRSSLVITTKIFWGGKAETERGLSRKHIIEGLKASLERLQLEYVDVVFANRPDPNTPMEETVRAMTHVINQGMAMYWGTSRWSSMEIMEAYSVARQFNLIPPRCEQAEYHMFQREKVEVQLPELFHKIGVGAMTWSPLACGIVSGKYDSGIPPYSRASLKGYQWLKDKILSEEGRRQQAKLKELQAIAERLGCTLPQLAIAWCLRNEGVSSVLLGASNAEQLMENIGAIQVLPKLSSSIVHEIDSILGNKPYSKKDYRS | binds | – |
| W121A mutant Kvβ2, co-crystallized with cortisone (domain or fragment, rat, UniProt P62483 36-367, looked up) LQFYRNLGKSGLRVSCLGLGTWVTFGGQITDEMAEHLMTLAYDNGINLFDTAEVYAAGKAEVVLGNIIKKKGWRRSSLVITTKIFAGGKAETERGLSRKHIIEGLKASLERLQLEYVDVVFANRPDPNTPMEETVRAMTHVINQGMAMYWGTSRWSSMEIMEAYSVARQFNLIPPICEQAEYHMFQREKVEVQLPELFHKIGVGAMTWSPLACGIVSGKYDSGIPPYSRASLKGYQWLKDKILSEEGRRQQAKLKELQAIAERLGCTLPQLAIAWCLRNEGVSSVLLGASNAEQLMENIGAIQVLPKLSSSIVHEIDSILGNKPYSKKDYRS | binds | – |
